Results: the supplement of paper PMC9112550, “Optimization of the antimicrobial peptide Bac7 by deep mutational scanning” (BMC Biology, 2022)

Tested on: Escherichia coli TOP10
Test: shrunken log2 fold change of peptide-encoding DNA abundance (4.5 h post-induction vs induction); higher = less antimicrobial activity (less host growth inhibition)
Conditions: time post-induction: 4.5 h; library: site-saturation at positions 5, 18, 19, 20
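Further: peptides expressed intracellularly from a pBAD plasmid library in pooled LB shake-flask culture, induced with 0.3% L-arabinose, DNA abundance read by NGS, three biological replicates, DESeq2 with apeglm shrinkage.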

| Sequence | shrunken log2 fold change |
| --- | --- |
| RRIRTRPPRLPRPRPRPQLYPRP | -0.0657 |
| RRIRTRPPRLPRPRPRPRATPRP | 0.299 |
| RRIRQRPPRLPRPRPRPHYNPRP | -1.22 |
| RRIRFRPPRLPRPRPRPQDPPRP | -0.00978 |
| RRIRVRPPRLPRPRPRPLEKPRP | 0.158 |
| RRIRRRPPRLPRPRPRPYHMPRP | -0.254 |
| RRIRHRPPRLPRPRPRPCLLPRP | -0.342 |
| RRIRFRPPRLPRPRPRPAIDPRP | -0.00326 |
| RRIRWRPPRLPRPRPRPCNVPRP | -0.00213 |
| RRIRQRPPRLPRPRPRPFVPPRP | 0.0357 |
| RRIRTRPPRLPRPRPRPDKRPRP | -0.0389 |
| RRIRCRPPRLPRPRPRPLWWPRP | 0.204 |
| RRIRNRPPRLPRPRPRPCICPRP | -0.33 |
| RRIRCRPPRLPRPRPRPSPIPRP | -0.32 |
| RRIRARPPRLPRPRPRPIAMPRP | 0.207 |
| RRIRFRPPRLPRPRPRPPSIPRP | -0.0341 |
| RRIRCRPPRLPRPRPRPEERPRP | -0.0298 |
| RRIRARPPRLPRPRPRPTQVPRP | 0.224 |
| RRIRGRPPRLPRPRPRPRGYPRP | 0.382 |
| RRIRSRPPRLPRPRPRPVAQPRP | 0.101 |
| RRIRYRPPRLPRPRPRPYNLPRP | 0.00739 |
| RRIRHRPPRLPRPRPRPDHSPRP | -0.00651 |
| RRIRYRPPRLPRPRPRPPYMPRP | -0.43 |
| RRIRMRPPRLPRPRPRPLIEPRP | 1.14 |
| RRIRERPPRLPRPRPRPQRNPRP | -0.214 |

| Sequence | shrunken log2 fold change |
| --- | --- |
| RRIRYRPPRLPRPRPRPYKCPRP | -0.175 |
| RRIRQRPPRLPRPRPRPHWYPRP | -0.0983 |
| RRIRVRPPRLPRPRPRPREHPRP | 0.322 |
| RRIRRRPPRLPRPRPRPCEHPRP | -0.212 |
| RRIRARPPRLPRPRPRPEGLPRP | 0.527 |
| RRIRPRPPRLPRPRPRPCIMPRP | -1.1 |
| RRIRNRPPRLPRPRPRPMFIPRP | -0.383 |
| RRIRSRPPRLPRPRPRPQGTPRP | 0.0846 |
| RRIRKRPPRLPRPRPRPQWGPRP | 0.227 |
| RRIRVRPPRLPRPRPRPFFYPRP | 0.0563 |
| RRIRWRPPRLPRPRPRPNKPPRP | -0.0749 |
| RRIRDRPPRLPRPRPRPDGDPRP | -0.0107 |
| RRIRSRPPRLPRPRPRPGQMPRP | 0.206 |
| RRIRGRPPRLPRPRPRPTSPPRP | 0.491 |
| RRIRARPPRLPRPRPRPEEKPRP | 1.22 |
| RRIRWRPPRLPRPRPRPLFRPRP | -0.0807 |
| RRIRNRPPRLPRPRPRPVRRPRP | 0.112 |
| RRIRIRPPRLPRPRPRPLRMPRP | -0.04 |
| RRIRQRPPRLPRPRPRPWGYPRP | -0.166 |
| RRIRDRPPRLPRPRPRPMKWPRP | 0.139 |
| RRIRVRPPRLPRPRPRPNWQPRP | 0.108 |
| RRIRRRPPRLPRPRPRPSQQPRP | -0.0599 |
| RRIRNRPPRLPRPRPRPTSHPRP | -0.0916 |
| RRIRLRPPRLPRPRPRPNLMPRP | -0.367 |
| RRIRERPPRLPRPRPRPIQVPRP | -0.0549 |

| Sequence | shrunken log2 fold change |
| --- | --- |
| RRIRRRPPRLPRPRPRPCAIPRP | 3.08 |
| RRIRARPPRLPRPRPRPENTPRP | 0.397 |
| RRIRWRPPRLPRPRPRPGYSPRP | -0.191 |
| RRIRTRPPRLPRPRPRPKCCPRP | -0.133 |
| RRIRERPPRLPRPRPRPSMHPRP | -0.451 |
| RRIRFRPPRLPRPRPRPRTQPRP | 1.93 |
| RRIRIRPPRLPRPRPRPFWCPRP | -0.014 |
| RRIRFRPPRLPRPRPRPFAHPRP | -0.0794 |
| RRIRARPPRLPRPRPRPWHAPRP | 0.288 |
| RRIRWRPPRLPRPRPRPNRHPRP | 0.0506 |
| RRIRMRPPRLPRPRPRPRRLPRP | 0.817 |
| RRIRHRPPRLPRPRPRPHLFPRP | -0.154 |
| RRIRMRPPRLPRPRPRPDTYPRP | 0.0447 |
| RRIRKRPPRLPRPRPRPWSGPRP | 0.104 |
| RRIRMRPPRLPRPRPRPQHYPRP | -0.116 |
| RRIRTRPPRLPRPRPRPCLCPRP | -0.29 |
| RRIRQRPPRLPRPRPRPEITPRP | 0.0276 |
| RRIRQRPPRLPRPRPRPAPGPRP | 0.417 |
| RRIRIRPPRLPRPRPRPCMKPRP | -1.01 |
| RRIRERPPRLPRPRPRPPKYPRP | -0.294 |
| RRIRKRPPRLPRPRPRPSIWPRP | -0.0618 |
| RRIRQRPPRLPRPRPRPETPPRP | 0.495 |
| RRIRMRPPRLPRPRPRPGTVPRP | -0.071 |
| RRIRGRPPRLPRPRPRPVQLPRP | 0.0748 |
| RRIRTRPPRLPRPRPRPMPHPRP | 0.182 |

| Sequence | shrunken log2 fold change |
| --- | --- |
| RRIRPRPPRLPRPRPRPSAMPRP | 0.0584 |
| RRIRIRPPRLPRPRPRPRPWPRP | 0.154 |
| RRIRTRPPRLPRPRPRPTLQPRP | 0.336 |
| RRIRGRPPRLPRPRPRPTTMPRP | 0.451 |
| RRIRHRPPRLPRPRPRPEKRPRP | -0.01 |
| RRIRFRPPRLPRPRPRPLNHPRP | -0.608 |
| RRIRGRPPRLPRPRPRPFCRPRP | 0.326 |
| RRIRVRPPRLPRPRPRPHWPPRP | -0.122 |
| RRIRMRPPRLPRPRPRPYYIPRP | -0.227 |
| RRIRWRPPRLPRPRPRPDYIPRP | -0.00749 |
| RRIRTRPPRLPRPRPRPAKVPRP | -0.29 |
| RRIRERPPRLPRPRPRPDMVPRP | 0.0162 |
| RRIRKRPPRLPRPRPRPRHCPRP | 0.0472 |
| RRIRKRPPRLPRPRPRPARSPRP | 0.89 |
| RRIRLRPPRLPRPRPRPHMIPRP | -0.672 |
| RRIRCRPPRLPRPRPRPQYMPRP | -0.784 |
| RRIRFRPPRLPRPRPRPRDFPRP | -0.141 |
| RRIRTRPPRLPRPRPRPFQCPRP | -0.0173 |
| RRIRGRPPRLPRPRPRPLPLPRP | 0.627 |
| RRIRSRPPRLPRPRPRPNNWPRP | -0.0732 |
| RRIRQRPPRLPRPRPRPRETPRP | 0.248 |
| RRIRYRPPRLPRPRPRPNIDPRP | -1.61 |
| RRIRHRPPRLPRPRPRPFHGPRP | -0.121 |
| RRIRMRPPRLPRPRPRPLGLPRP | 0.717 |
| RRIRQRPPRLPRPRPRPSQYPRP | -0.244 |

| Sequence | shrunken log2 fold change |
| --- | --- |
| RRIRWRPPRLPRPRPRPKSPPRP | 0.819 |
| RRIRTRPPRLPRPRPRPRKNPRP | 0.136 |
| RRIRGRPPRLPRPRPRPWPQPRP | 0.498 |
| RRIRYRPPRLPRPRPRPHLLPRP | -0.515 |
| RRIRIRPPRLPRPRPRPQASPRP | -0.0941 |
| RRIRQRPPRLPRPRPRPLTCPRP | -0.539 |
| RRIRSRPPRLPRPRPRPPEQPRP | 0.306 |
| RRIRIRPPRLPRPRPRPGERPRP | -0.0896 |
| RRIRKRPPRLPRPRPRPPLPPRP | 0.74 |
| RRIRGRPPRLPRPRPRPDEWPRP | 0.757 |
| RRIRKRPPRLPRPRPRPCKHPRP | -0.11 |
| RRIRYRPPRLPRPRPRPQFFPRP | -0.0644 |
| RRIRFRPPRLPRPRPRPWVGPRP | -0.0721 |
| RRIRIRPPRLPRPRPRPITKPRP | -0.123 |
| RRIRARPPRLPRPRPRPRVRPRP | 0.567 |
| RRIRKRPPRLPRPRPRPFSPPRP | -0.102 |
| RRIRPRPPRLPRPRPRPSKCPRP | -0.0749 |
| RRIRGRPPRLPRPRPRPEPHPRP | 1.09 |
| RRIRMRPPRLPRPRPRPCLLPRP | -0.0289 |
| RRIRHRPPRLPRPRPRPRYYPRP | -0.332 |
| RRIRRRPPRLPRPRPRPAYEPRP | 0.138 |
| RRIRHRPPRLPRPRPRPFKIPRP | -0.192 |
| RRIRYRPPRLPRPRPRPKVIPRP | -0.102 |
| RRIRNRPPRLPRPRPRPVAFPRP | -0.119 |
| RRIRNRPPRLPRPRPRPRSFPRP | 0.0523 |

| Sequence | shrunken log2 fold change |
| --- | --- |
| RRIRKRPPRLPRPRPRPWRTPRP | 0.379 |
| RRIRGRPPRLPRPRPRPDCWPRP | 1.58 |
| RRIRVRPPRLPRPRPRPQPQPRP | 0.302 |
| RRIRYRPPRLPRPRPRPLFHPRP | -0.818 |
| RRIRFRPPRLPRPRPRPLCAPRP | -0.0266 |
| RRIRYRPPRLPRPRPRPSRQPRP | -0.114 |
| RRIRVRPPRLPRPRPRPVHIPRP | -0.174 |
| RRIRARPPRLPRPRPRPFPPPRP | 0.332 |
| RRIRARPPRLPRPRPRPPLQPRP | 0.557 |
| RRIRCRPPRLPRPRPRPWTCPRP | -0.323 |
| RRIRDRPPRLPRPRPRPFDVPRP | 0.016 |
| RRIRIRPPRLPRPRPRPRNDPRP | -0.543 |
| RRIRARPPRLPRPRPRPCCWPRP | 0.245 |
| RRIRFRPPRLPRPRPRPDDFPRP | 0.0834 |
| RRIRMRPPRLPRPRPRPLVKPRP | -0.174 |
| RRIRGRPPRLPRPRPRPVQIPRP | 0.335 |
| RRIRMRPPRLPRPRPRPSNMPRP | -0.0931 |
| RRIRQRPPRLPRPRPRPKMMPRP | -0.082 |
| RRIRQRPPRLPRPRPRPWLVPRP | -0.0624 |
| RRIRCRPPRLPRPRPRPGKVPRP | 0.181 |
| RRIRPRPPRLPRPRPRPQECPRP | 0.0456 |
| RRIRERPPRLPRPRPRPSEGPRP | 0.00843 |
| RRIRSRPPRLPRPRPRPLGIPRP | -0.036 |
| RRIRFRPPRLPRPRPRPFKQPRP | -0.242 |
| RRIRMRPPRLPRPRPRPKTAPRP | 2.56 |
